Data: the supplement of paper PMC10065799, “High-throughput profiling of sequence recognition by tyrosine kinases and SH2 domains using bacterial peptide display” (eLife, 2023)

System: c-Src;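 also: 11-residue human phosphosite peptides and single-mutation variants displayed on the E. coli surface, counted by deep sequencing, each peptide's frequency after selection divided by its frequency in the unselected input library; frequency after pTyr selection over input frequency; kinase dosed for 20-30% of maximal phosphorylation in three min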
Assay: phosphorylation enrichment, bacterial display (enrichment ratio); higher = better substrate or ligand; peptides without Tyr show the background
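For SH2 binding enrichment of the phosphorylated peptide, bacterial display in this document: peptide library displayed on the E. coli surface as eCPX fusions, selected cells deep-sequenced, score is each peptide's frequency after selection divided by its frequency in the input.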

Row | Sequence | phosphorylation enrichment
1 | RNFGTYTAGLS [RHBDD1_Y264_D262G_YF] | 0.517
2 | LERYIYNRQEF [HLA-DPB1_Y59_E62Q] | 1.24
3 | YASALYGQRRS [FGF11_Y162_R163G] | 0.784
4 | VMIFAYLLHRG [PTEN_Y138_C136Y_YF] | 0.415
5 | FHKALYTVRTF [PDE6C_Y266_S270T_YF] | 0.729
6 | SFPPTYRYERG [INPPL1_Y661] | 0.427
7 | KDFETYQPFQN [CTNND2_Y1157_YF] | 4.18
8 | PGLSSYGVPAS [FLNB_Y1530] | 0.474
9 | KYACSYTPVKA [FLNB_Y708_T703K] | 0.432
10 | KYLENYLNRLL [PLD2_Y169] | 0.475
11 | TKLKDYYIFNK [CCDC42_Y149_A144T] | 1.37
12 | FAGRDYSLDEF [MYOF_Y1705_G1701A_YF] | 0.572
13 | IVRSLYEDLED [VHL_Y185] | 0.393
14 | QRALLYEDALY [UNC13D_Y56] | 6.09
15 | NCLRVYVAGRF [CRB1_Y711_E710V] | 0.567
16 | LGEGSYGKVKE [STK11_Y60] | 0.863
17 | GSESDYIVMPN [SCARB1_Y133] | 0.63

Row | Sequence | phosphorylation enrichment
18 | YLNSSYINIST [IL23R_Y178_T175N] | 0.436
19 | TTPAVYARVTK [CTRB2_Y246_A250T] | 3.55
20 | EHFSFYGMKAV [SLC15A2_Y61_R57H_YF] | 0.579
21 | PLLLSYYLIKW [NUP160_Y773] | 0.854
22 | VVHGSYDEIEG [SEC24A_Y263_S261G] | 0.536
23 | FLAVGDHKPHI [IDS_Y225_Y225D] | 0.327
24 | REIIAYQPYGK [PRKCG_Y529_P524R] | 0.405
25 | FDNPVCQKTTE [LDLR_Y828_Y828C] | 0.523
26 | NKKYHYRELPV [ERN2_Y860_H858Y] | 0.32
27 | IKNPQYFSDAC [NTRK1_Y496_E492K] | 0.473
28 | CTTIDYNYMCN [TP53_Y234_H233D] | 0.488
29 | VLALWYYYLTN [ZDHHC23_Y127_H132N] | 1.35
30 | SIIKDYFHRGA [GATM_Y203] | 0.477
31 | VGEGPYLLSDL [ABCC12_Y7_I9L] | 0.71
32 | CATIHYNFMCN [TP53_Y234_T230A_YF] | 0.525
33 | VFPATYHPDHW [EFCAB12_Y544_YF] | 0.458

Target: Grb2 SH2 (UniProt P62993)
Assay: SH2 binding enrichment of the phosphorylated peptide, bacterial display (enrichment ratio); higher = better substrate or ligand; peptides without Tyr show the background

Row | SH2 binding enrichment | Sequence
34 | 0.631 | RNFGTYTAGLS [RHBDD1_Y264_D262G_YF]
35 | 0.875 | IVRSLYEDLED [VHL_Y185]
36 | 0.825 | QRALLYEDALY [UNC13D_Y56]
37 | 0.669 | LGEGSYGKVKE [STK11_Y60]
38 | 0.874 | GSESDYIVMPN [SCARB1_Y133]
39 | 0.795 | EHFSFYGMKAV [SLC15A2_Y61_R57H_YF]
40 | 0.801 | VVHGSYDEIEG [SEC24A_Y263_S261G]
41 | 0.768 | CTTIDYNYMCN [TP53_Y234_H233D]
42 | 1.24 | VLALWYYYLTN [ZDHHC23_Y127_H132N]
43 | 1.37 | CATIHYNFMCN [TP53_Y234_T230A_YF]

The next lines start with the sequence.

Row | Sequence | SH2 binding enrichment
44 | LERYIYNRQEF [HLA-DPB1_Y59_E62Q] | 0.812
45 | YASALYGQRRS [FGF11_Y162_R163G] | 0.675
46 | VMIFAYLLHRG [PTEN_Y138_C136Y_YF] | 1.59
47 | FHKALYTVRTF [PDE6C_Y266_S270T_YF] | 0.853
48 | SFPPTYRYERG [INPPL1_Y661] | 0.831
49 | KDFETYQPFQN [CTNND2_Y1157_YF] | 0.948
50 | PGLSSYGVPAS [FLNB_Y1530] | 0.898
51 | KYACSYTPVKA [FLNB_Y708_T703K] | 1.05
52 | KYLENYLNRLL [PLD2_Y169] | 1.46
53 | TKLKDYYIFNK [CCDC42_Y149_A144T] | 1.05
54 | FAGRDYSLDEF [MYOF_Y1705_G1701A_YF] | 0.699
55 | NCLRVYVAGRF [CRB1_Y711_E710V] | 1.11
56 | YLNSSYINIST [IL23R_Y178_T175N] | 24.6
57 | TTPAVYARVTK [CTRB2_Y246_A250T] | 0.696
58 | PLLLSYYLIKW [NUP160_Y773] | 1.29
59 | FLAVGDHKPHI [IDS_Y225_Y225D] | 0.824
60 | REIIAYQPYGK [PRKCG_Y529_P524R] | 0.833
61 | FDNPVCQKTTE [LDLR_Y828_Y828C] | 0.969
62 | NKKYHYRELPV [ERN2_Y860_H858Y] | 1.17
63 | IKNPQYFSDAC [NTRK1_Y496_E492K] | 0.909
64 | SIIKDYFHRGA [GATM_Y203] | 0.87
65 | VGEGPYLLSDL [ABCC12_Y7_I9L] | 0.641
66 | VFPATYHPDHW [EFCAB12_Y544_YF] | 1.04
